The text below walks through data of patent US20240228562A1, “NOVEL LIPOCALIN MUTEINS SPECIFIC FOR CONNECTIVE TISSUE GROWTH FACTOR (CTGF)” (PIERIS PHARMACEUTICALS GMBH, priority 2021, published 2024).

The target in one experiment is T1, Rat CTGF (Rattus norvegicus, UniProt Q9R1E9).
T1 construct: purchased R&D Systems
T1 sequence (Q9R1E9 25-347): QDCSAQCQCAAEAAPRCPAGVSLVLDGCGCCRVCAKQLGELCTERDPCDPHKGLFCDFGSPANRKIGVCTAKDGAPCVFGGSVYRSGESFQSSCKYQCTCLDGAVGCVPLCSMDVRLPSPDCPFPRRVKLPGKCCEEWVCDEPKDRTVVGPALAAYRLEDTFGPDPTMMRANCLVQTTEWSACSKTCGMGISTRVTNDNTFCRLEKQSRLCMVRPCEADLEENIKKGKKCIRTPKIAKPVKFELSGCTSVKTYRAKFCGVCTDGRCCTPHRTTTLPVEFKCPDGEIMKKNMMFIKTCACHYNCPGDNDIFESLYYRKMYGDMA
As to the kind of experiment: SPR binding kinetics and affinity, rat CTGF. The conditions noted are these: 25° C., 1:1 binding model. In a few lines: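 Targets either amine-coupled to CM5 chip (300–1100 RU; Fc-tagged human, untagged rat/murine) or Fc-captured via anti-human IgG; muteins injected 180 s contact, 900–3600 s dissociation, 30 μL/min, 25° C. Double-referenced sensorgrams fit to 1:1 model giving kon, koff and KD.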
(In SPR one partner is held on a chip, and binding of the other changes the refractive index at the surface.)

For another experiment, the target named is T2, huWISP-2 (Homo sapiens, UniProt O76076).
T2 sequence (O76076 24-250): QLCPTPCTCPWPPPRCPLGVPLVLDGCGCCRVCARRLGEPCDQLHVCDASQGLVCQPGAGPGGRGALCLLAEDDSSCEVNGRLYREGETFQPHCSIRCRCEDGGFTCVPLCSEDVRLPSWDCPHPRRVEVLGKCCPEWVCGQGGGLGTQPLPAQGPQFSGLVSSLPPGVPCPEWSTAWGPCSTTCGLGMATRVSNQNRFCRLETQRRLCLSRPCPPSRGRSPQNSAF
As to the kind of experiment: Specificity ELISA (CCN proteins), huWISP-2. Type of experiment: binding. The conditions noted are these: coated 1 μg/ml; assessed when human CTGF signal approached saturation. How it is done:
(§1) Binding of muteins to closely related proteins of CTGF was tested by an ELISA assay. In detail, a 384-well plate suitable for fluorescence measurements (Greiner FLUOTRAC™ 600, black flat bottom, high-binding) was coated with 20 μl of human CTGF or the other members of the CCN protein family at a concentration of 1 μg/ml in PBS over night at 4° C. After washing with PBS with 0.05% Tween 20, wells were blocked with 100 μl blocking buffer containing 0.1% Tween 20 and 2% BSA (PBS-T/BSA) for 1 h at room temperature. 20 μl of serially diluted muteins starting at 1000 nM were incubated in PBS-T/BSA for 1 h at room temperature (RT).
(§2) The residual supernatants were discarded and 20 μl HRP-labeled anti-NGAL or anti-Strep-Tag antibody was added at a predetermined optimal concentration in PBS-T/BSA and incubated for 1 h at RT. After washing, 20 μl fluorogenic HRP substrate (QuantaBlu, Thermo) was added to each well, and the reaction was allowed to proceed for 2 to 60 minutes. The fluorescence intensity of every well on the plate was read using a fluorescence microplate reader (Tecan). When the signal for human CTGF approached saturation, the cross reactivity to the other proteins was assessed.
A general note: An ELISA detects its analyte on a solid surface through an enzyme-linked reagent.

Another experiment has as its target T3, huWISP-1 (Homo sapiens, UniProt O95388).
T3 sequence (O95388 23-367): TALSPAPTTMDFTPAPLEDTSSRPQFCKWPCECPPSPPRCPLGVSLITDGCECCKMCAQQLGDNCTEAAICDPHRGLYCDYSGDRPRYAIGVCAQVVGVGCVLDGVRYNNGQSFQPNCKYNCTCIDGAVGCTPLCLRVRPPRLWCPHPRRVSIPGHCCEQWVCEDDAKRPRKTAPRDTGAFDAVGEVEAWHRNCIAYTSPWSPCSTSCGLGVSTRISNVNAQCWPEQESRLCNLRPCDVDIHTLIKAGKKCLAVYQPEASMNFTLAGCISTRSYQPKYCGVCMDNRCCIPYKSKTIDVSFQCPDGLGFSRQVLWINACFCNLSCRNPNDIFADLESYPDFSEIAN
As to the kind of experiment: Specificity ELISA (CCN proteins), huWISP-1. Type of experiment: binding. To be noted: coated 1 μg/ml; assessed when human CTGF signal approached saturation. As for the experimental part: as §1, §2

Experiment [1] concerns the target T4, Human CTGF with a human IgG1 Fc Tag (Homo sapiens, UniProt P29279, H83D).
T4 construct: purchased Creative Biomart
As to the kind of experiment: SPR epitope analysis (simultaneous binding). How it is done: Surface plasmon resonance (SPR) was used to analyze the epitopes and determine simultaneous binding of different lipocalin muteins. Human CTGF with a human IgG1 Fc Tag was directly immobilized to a CM5 Chip (Creative Biomart, 10 μg/mL in 10 mM sodium acetate pH 4.5) until an immobilization level of 470-630 resonance units was achieved. The reference channel was activated/deactivated. […] As control, single lipocalin muteins were injected and the resulting signal of single and mixtures was compared at the end of the injection. The chip was regenerated with 3 M MgCl2 and Glycine-HCl pH1.5 for each 60 s at a flowrate of 15 μL/min.
“Yes” means simultaneous binding is possible, “no” stands for same or overlapping epitope, “n.t.” stands for not tested.

[2] abbreviates: SPR, mixed and injected simultaneously at 750 nM or 1000 nM.

T4 sequence (P29279 with tags, fused parts or gaps H83D): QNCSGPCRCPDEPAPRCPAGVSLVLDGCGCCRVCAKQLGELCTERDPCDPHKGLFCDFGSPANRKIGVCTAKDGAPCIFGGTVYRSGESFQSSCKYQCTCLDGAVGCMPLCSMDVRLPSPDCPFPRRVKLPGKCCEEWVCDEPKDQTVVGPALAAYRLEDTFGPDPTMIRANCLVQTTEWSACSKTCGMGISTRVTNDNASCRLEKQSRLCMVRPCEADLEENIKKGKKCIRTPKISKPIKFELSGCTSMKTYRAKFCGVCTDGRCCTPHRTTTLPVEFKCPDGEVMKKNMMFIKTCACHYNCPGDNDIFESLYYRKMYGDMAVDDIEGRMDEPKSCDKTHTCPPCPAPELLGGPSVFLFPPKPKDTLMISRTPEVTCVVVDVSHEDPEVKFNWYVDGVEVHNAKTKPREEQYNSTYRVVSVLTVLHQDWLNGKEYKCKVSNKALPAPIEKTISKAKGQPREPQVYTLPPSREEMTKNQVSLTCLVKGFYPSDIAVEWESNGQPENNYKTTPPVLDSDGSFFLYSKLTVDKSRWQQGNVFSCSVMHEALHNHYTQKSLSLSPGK

B1: SEQ ID NO: 25: parent CTGF-binding hNGAL lipocalin mutein (protein)
chain: QDSTSDLIPAPPLSKVPLQQNFQDNQFHGKWYVVGMAGNFRLREDKDPSKMGATIYELKEDKSYNVTQVQFDDKKCLYVIETFVPGSQPGEFTLGAIKSFPGFTSQLVRVVSTNYNQHAMVFFKKVYQNREVFWITLYGRTKELTSELKENFIRFSKSLGLPENHIVFPVPIDQCIDG
modifications: lipocalin mutein
For B1, in the experiment with Rat CTGF, the Kd is 27.7 nM, the “Rat CTGF koff” value amounted to 0.00129 s⁻¹ and the “Rat CTGF kon” value was determined as 46500 M⁻¹ s⁻¹. Besides, the “ELISA binding to huWISP-2” value in the experiment with huWISP-2 is recorded as “No binding”. The “ELISA binding to huWISP-1” value with huWISP-1 is on record as “No binding”. For the same molecule, in experiment [1] (setting [2]), the “Simultaneous binding with SEQ ID NO: 7” value is recorded as “yes”, the “Simultaneous binding with SEQ ID NO: 9” value is “yes”, the “Simultaneous binding with SEQ ID NO: 25” value is reported as “no” and the “Simultaneous binding with SEQ ID NO: 29” value was “no”. In experiment [1] (setting [2]), the “Simultaneous binding with SEQ ID NO: 60 and 61 (control antibody)” value was “yes”.

B2: SEQ ID NO: 29: parent CTGF-binding hNGAL lipocalin mutein (protein)
chain: QDSTSDLIPAPPLSKVPLQQNFQDNQFHGKWYVVGWAGNIKLREDKDPFKMSATIYELKEDKSYNVTEVVFEQKKCHYIIKTFVPGSQPGEFTLGDIKSPPGETSSLVRVVSTNYNQHAMVFFKKVFQNREFFWITLYGRTKELTSELKENFIRFSKSLGLPENHIVFPVPIDQCIDG
modifications: lipocalin mutein
Turning to B2, in the experiment with Rat CTGF, the Kd amounted to 18 nM, the “Rat CTGF koff” value was determined as 0.00317 s⁻¹ and the “Rat CTGF kon” value is 176000 M⁻¹ s⁻¹. In addition, in the experiment with huWISP-2, the “ELISA binding to huWISP-2” value is reported as “No binding”. The “ELISA binding to huWISP-1” value in the experiment with huWISP-1 was “No binding”. In addition, in experiment [1] (setting [2]), the “Simultaneous binding with SEQ ID NO: 7” value is given as “yes”, the “Simultaneous binding with SEQ ID NO: 9” value was “yes”, the “Simultaneous binding with SEQ ID NO: 25” value was “no” and the “Simultaneous binding with SEQ ID NO: 29” value was “no”. In experiment [1] (setting [2]), the “Simultaneous binding with SEQ ID NO: 60 and 61 (control antibody)” value is reported as “yes”.

B3: SEQ ID NO: 3: parent CTGF-binding hNGAL lipocalin mutein (protein)
chain: QDSTSDLIPAPPLSKVPLQQNFQDNQFHGKWYVVGRAGNNRLREDKDPPKMWATIYELKEDKSYNVTHVHFMTKKCRYIIDTFVPGSQPGEFTLGAIKSGPGMTSPLVRIVSTNYNQHAMVFFKWVNQNREWFTITLYGRTKELTSELKENFIRFSKSLGLPENHIVFPVPIDQCIDG
modifications: lipocalin mutein
B3: in the experiment with Rat CTGF, the dissociation constant (Kd) amounted to 39.3 nM, the “Rat CTGF koff” value was determined as 0.0117 s⁻¹ and the “Rat CTGF kon” value stood at 297000 M⁻¹ s⁻¹. Also, in the experiment with huWISP-2, the “ELISA binding to huWISP-2” value is on record as “No binding”. In addition, in the experiment with huWISP-1, the “ELISA binding to huWISP-1” value is on record as “No binding”. Further, in experiment [1] (setting [2]), the “Simultaneous binding with SEQ ID NO: 3” value was “no”; the “Simultaneous binding with SEQ ID NO: 60 and 61 (control antibody)” value is “yes”.

B4: SEQ ID NO: 74: fusion protein comprising two CTGF-binding lipocalin muteins (protein)
chain: QDSTSDLIPAPPLSKVPLQQNFQDNQFQGKWYVVGLAGNAILREDKQPAKMFATIYELKEDKSYDVTSVRFEAKSCKYTIKTFVPGSQPGEFTAGYIKSAPGQTSTLVRVVSTNYNQHAMVFFKHVTQNREIFVITLYGRTKELTSELKENFIRFSKSLGLPENHIVFPVPIDQCIDGGGGGSGGGGSGGGGSQDSTSDLIPAPPLSKVPLQQNFQDNQFQGKWYVVGWAGNVKLREDKQPQKMSATIYELKEDKSYDVTEVVFEQKKCHYIIKTFVPGSQPGEFTAGDIKSPPGYTSSLVRVVSTNYNQHAMVFFKKVSQNREFFWITLYGRTKELTSELKENFIRFSKSLGLPENHIVFPVPIDQCIDG
modifications: fusion protein
In the case of B4, in the experiment with huWISP-2, the “ELISA binding to huWISP-2” value is given as “No binding”. In addition, the “ELISA binding to huWISP-1” value with huWISP-1 was “No binding”.

B5: SEQ ID NO: 23: optimized CTGF-binding hNGAL lipocalin mutein (protein)
chain: QDSTSDLIPAPPLSKVPLQQNFQDNQFQGKWYVVGVAGNAILRPDKQPAKMFATIYELKEDKSYDVTSVRFEAKSCKYTIKTFVPGSQPGEFTSGQIKSAPGQTSTLVRVVSTNYNQHAMVFFKHVSQNREIFVITLYGRTKELTSELKENFIRFSKSLGLPENHIVFPVPIDQCIDG
modifications: lipocalin mutein
B5: in the experiment with huWISP-2, the “ELISA binding to huWISP-2” value is listed as “No binding”. Also, the “ELISA binding to huWISP-1” value with huWISP-1 was “No binding”. The “Epitope overlap with anti-CTGF antibody of SEQ ID NOs: 60 and 61” value in experiment [1] is “overlapped”.

B6: SEQ ID NO: 15: optimized CTGF-binding hNGAL lipocalin mutein (protein)
chain: QDSTSDLIPAPPLSKVPLQQNFQDNQFQGKWYVVGLAGNAILREDKQPAKMFATIYELKEDKSYDVTSVRFEAKSCKYTIKTFVPGSQPGEFTAGYIKSAPGQTSTLVRVVSTNYNQHAMVFFKHVTQNREIFVITLYGRTKELTSELKENFIRFSKSLGLPENHIVFPVPIDQCIDG
modifications: lipocalin mutein
Turning to B6, in the experiment with Rat CTGF, the “Rat CTGF koff” value was determined as 0.000114 s⁻¹ and the “Rat CTGF kon” value is 120000 M⁻¹ s⁻¹. Further, the “ELISA binding to huWISP-2” value in the experiment with huWISP-2 was “No binding”. For the same molecule, the “ELISA binding to huWISP-1” value with huWISP-1 is given as “No binding”.

B7: SEQ ID NO: 9: parent CTGF-binding hNGAL lipocalin mutein (protein)
chain: QDSTSDLIPAPPLSKVPLQQNFQDNQFHGKWYVVGLAGNKILRIDKQPAKMFATIYELKEDKSYDVTSVRFEARSCSYTIKTFVPGSQPGEFTAGNIKSAPGQTSTLVRVVSTNYNQHAMVFFKHVSQNRETFVITLYGRTKELTSELKENFIRFSKSLGLPENHIVFPVPIDQCIDG
modifications: lipocalin mutein
As for B7, in the experiment with Rat CTGF, the Kd is 16 nM, the “Rat CTGF koff” value is 0.00169 s⁻¹ and the “Rat CTGF kon” value turned out to be 105000 M⁻¹ s⁻¹. The “ELISA binding to huWISP-2” value in the experiment with huWISP-2 is “No binding”. The “ELISA binding to huWISP-1” value in the experiment with huWISP-1 is “No binding”. In addition, in experiment [1] (setting [2]), the “Simultaneous binding with SEQ ID NO: 7” value was “no”, the “Simultaneous binding with SEQ ID NO: 9” value is reported as “no”, the “Simultaneous binding with SEQ ID NO: 25” value is reported as “yes” and the “Simultaneous binding with SEQ ID NO: 29” value is “yes”. The “Simultaneous binding with SEQ ID NO: 60 and 61 (control antibody)” value in experiment [1] (setting [2]) is given as “no”.

What is called Kd is a measure of binding affinity in units of concentration.
